# Data: publication PMC9728176
# Target: T1, His6-Fur (Escherichia coli) (UniProt P0A9A9)
# T1 sequence: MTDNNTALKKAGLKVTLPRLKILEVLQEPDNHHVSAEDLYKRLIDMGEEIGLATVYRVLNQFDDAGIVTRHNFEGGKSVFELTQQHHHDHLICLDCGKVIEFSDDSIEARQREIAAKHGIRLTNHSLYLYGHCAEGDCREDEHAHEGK
# Experiment: EMSA
# Settings: EMSA: 10 mM Tris-HCl pH 7.5, 50 mM KCl, 0.5 mM DTT, 0.05 mg/ml BSA, 4% glycerin, 1 mM MgCl2, 0.1 mM MnCl2, 50 ug/ml poly(dI-dC), 10 ng probe, temperature not …
sequence,measurement,value
GCGATATCACCGGTATAAGGGGCCAGCAGTTCCGCAGGGTCGAACTCTGCCAGATCTGCCAGCGCAACGAAGTTTTGCACCACCTGAATATCGCCCTGCACTTCCAGCTCACCACTGCGAATCAGTGCGGTAAGCTGCTGGCGATCGCGAAGTTTCGGCAACACACTGGCGTAGGCGATAACGGTGCA (double strand) [Biotin-PesrE (Biotin-S1V3)],binding,binds
